Results from the supplement of paper PMC10065799, “High-throughput profiling of sequence recognition by tyrosine kinases and SH2 domains using bacterial peptide display” (eLife, 2023).

Tests used:
[1] = tested on: c-Src; assay: phosphorylation enrichment, bacterial display (enrichment ratio); higher = better substrate or ligand; peptides without Tyr show the background
[2] = tested on: c-Abl (mouse); assay: as above
[3] = target: Hck (UniProt P08631); assay: as above
[4] = target: MERTK (UniProt Q12866); assay: as above
Sequence of MERTK (Q12866 whole entry, looked up): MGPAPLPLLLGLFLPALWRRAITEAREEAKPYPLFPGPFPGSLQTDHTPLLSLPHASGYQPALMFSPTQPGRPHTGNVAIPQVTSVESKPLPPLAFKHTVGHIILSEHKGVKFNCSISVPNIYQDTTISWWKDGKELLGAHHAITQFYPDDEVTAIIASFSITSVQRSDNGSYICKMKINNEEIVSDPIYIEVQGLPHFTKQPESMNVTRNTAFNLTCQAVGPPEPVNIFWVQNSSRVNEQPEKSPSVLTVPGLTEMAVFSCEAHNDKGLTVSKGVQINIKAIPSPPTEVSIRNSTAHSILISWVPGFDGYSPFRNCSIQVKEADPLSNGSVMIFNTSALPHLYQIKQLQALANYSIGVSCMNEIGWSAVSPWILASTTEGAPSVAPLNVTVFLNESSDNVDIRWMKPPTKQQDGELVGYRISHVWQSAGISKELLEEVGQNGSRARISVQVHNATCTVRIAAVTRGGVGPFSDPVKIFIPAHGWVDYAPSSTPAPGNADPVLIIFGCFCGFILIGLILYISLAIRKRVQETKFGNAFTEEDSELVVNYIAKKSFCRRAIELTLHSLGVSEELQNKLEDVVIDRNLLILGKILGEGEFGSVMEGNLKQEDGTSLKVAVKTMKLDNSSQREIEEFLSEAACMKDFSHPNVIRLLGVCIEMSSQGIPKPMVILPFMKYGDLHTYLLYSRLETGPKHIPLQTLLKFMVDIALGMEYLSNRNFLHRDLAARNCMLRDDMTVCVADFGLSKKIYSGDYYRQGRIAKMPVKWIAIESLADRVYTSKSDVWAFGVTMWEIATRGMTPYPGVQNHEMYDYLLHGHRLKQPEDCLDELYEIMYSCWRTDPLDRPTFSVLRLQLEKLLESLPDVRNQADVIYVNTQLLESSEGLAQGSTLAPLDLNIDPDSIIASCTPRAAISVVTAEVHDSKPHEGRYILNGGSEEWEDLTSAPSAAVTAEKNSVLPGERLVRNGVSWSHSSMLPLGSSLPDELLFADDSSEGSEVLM

[5] = tested on: AncSZ; assay: as above
[6] = target: EPHB2 (UniProt P29323); assay: as above
[7] = target: Fyn (UniProt P06241); assay: as above
[8] = target: Fes (UniProt P07332); assay: as above
Sequence of Fes (P07332 whole entry, looked up): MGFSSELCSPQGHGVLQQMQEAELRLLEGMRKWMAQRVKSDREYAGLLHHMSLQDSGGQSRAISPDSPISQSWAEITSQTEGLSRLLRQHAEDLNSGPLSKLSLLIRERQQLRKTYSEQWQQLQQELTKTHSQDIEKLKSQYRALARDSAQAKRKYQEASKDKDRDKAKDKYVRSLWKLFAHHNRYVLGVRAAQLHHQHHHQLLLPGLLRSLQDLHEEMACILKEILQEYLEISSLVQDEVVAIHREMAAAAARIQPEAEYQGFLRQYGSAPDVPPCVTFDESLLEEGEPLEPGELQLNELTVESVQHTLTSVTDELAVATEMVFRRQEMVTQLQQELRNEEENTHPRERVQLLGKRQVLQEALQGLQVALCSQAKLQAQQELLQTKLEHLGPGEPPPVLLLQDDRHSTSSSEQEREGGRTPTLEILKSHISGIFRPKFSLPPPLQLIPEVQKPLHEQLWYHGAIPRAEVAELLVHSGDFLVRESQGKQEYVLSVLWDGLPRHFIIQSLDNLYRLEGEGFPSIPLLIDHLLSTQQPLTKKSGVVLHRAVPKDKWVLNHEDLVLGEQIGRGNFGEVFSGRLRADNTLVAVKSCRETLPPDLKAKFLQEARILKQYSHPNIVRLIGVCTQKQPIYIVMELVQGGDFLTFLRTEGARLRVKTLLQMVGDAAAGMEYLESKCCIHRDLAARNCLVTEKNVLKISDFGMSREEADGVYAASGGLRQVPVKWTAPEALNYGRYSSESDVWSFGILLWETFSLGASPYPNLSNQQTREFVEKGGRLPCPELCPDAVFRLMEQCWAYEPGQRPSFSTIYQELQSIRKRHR

[9] = target: Jak2 (UniProt O60674); assay: as above
[10] = target: FGFR1 (UniProt P11362); assay: as above
Sequence of FGFR1 (P11362 whole entry, looked up): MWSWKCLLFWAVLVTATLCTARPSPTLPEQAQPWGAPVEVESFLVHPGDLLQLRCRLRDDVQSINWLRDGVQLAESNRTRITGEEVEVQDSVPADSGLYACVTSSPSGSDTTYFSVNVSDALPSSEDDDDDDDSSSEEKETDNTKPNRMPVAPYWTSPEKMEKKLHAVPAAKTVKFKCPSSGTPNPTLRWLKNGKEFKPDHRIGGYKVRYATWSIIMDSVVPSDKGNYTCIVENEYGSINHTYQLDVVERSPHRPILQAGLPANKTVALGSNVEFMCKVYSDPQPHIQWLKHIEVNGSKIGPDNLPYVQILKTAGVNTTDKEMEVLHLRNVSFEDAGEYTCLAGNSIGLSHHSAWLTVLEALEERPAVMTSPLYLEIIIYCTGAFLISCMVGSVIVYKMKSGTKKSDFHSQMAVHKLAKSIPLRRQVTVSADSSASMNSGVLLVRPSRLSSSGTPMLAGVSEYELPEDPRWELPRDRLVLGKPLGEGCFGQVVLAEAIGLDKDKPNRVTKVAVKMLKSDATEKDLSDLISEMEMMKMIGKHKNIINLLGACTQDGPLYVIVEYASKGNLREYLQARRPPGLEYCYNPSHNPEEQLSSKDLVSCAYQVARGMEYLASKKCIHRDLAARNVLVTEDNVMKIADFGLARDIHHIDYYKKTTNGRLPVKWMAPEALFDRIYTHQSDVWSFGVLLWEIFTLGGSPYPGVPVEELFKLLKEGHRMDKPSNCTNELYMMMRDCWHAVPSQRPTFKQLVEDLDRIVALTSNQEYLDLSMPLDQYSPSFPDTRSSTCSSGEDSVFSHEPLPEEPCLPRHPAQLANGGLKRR

[11] = target: FGFR3 (UniProt P22607); assay: as above
Sequence of FGFR3 (P22607 whole entry, looked up): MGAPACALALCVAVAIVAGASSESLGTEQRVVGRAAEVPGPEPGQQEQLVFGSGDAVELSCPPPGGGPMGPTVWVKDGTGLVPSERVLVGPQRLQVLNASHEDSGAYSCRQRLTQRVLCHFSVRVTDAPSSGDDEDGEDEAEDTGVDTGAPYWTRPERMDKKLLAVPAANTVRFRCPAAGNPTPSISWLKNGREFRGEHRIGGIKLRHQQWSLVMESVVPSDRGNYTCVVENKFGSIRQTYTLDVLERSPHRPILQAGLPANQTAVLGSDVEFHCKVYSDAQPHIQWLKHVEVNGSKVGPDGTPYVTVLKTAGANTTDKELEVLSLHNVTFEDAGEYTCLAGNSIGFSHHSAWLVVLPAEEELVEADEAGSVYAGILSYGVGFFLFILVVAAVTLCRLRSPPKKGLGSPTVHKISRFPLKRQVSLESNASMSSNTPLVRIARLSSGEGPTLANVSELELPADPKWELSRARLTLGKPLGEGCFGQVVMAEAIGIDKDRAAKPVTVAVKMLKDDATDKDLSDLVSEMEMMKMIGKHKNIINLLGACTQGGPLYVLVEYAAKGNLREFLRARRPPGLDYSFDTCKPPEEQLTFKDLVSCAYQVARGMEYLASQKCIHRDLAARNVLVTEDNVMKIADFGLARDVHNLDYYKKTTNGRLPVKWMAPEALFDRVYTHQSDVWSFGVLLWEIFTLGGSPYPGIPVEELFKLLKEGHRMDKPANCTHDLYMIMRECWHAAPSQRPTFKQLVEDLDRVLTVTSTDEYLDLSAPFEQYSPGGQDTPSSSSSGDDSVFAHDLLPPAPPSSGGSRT

[12] = target: EPHB1 (UniProt P54762); assay: as above
Sequence of EPHB1 (P54762 whole entry, looked up): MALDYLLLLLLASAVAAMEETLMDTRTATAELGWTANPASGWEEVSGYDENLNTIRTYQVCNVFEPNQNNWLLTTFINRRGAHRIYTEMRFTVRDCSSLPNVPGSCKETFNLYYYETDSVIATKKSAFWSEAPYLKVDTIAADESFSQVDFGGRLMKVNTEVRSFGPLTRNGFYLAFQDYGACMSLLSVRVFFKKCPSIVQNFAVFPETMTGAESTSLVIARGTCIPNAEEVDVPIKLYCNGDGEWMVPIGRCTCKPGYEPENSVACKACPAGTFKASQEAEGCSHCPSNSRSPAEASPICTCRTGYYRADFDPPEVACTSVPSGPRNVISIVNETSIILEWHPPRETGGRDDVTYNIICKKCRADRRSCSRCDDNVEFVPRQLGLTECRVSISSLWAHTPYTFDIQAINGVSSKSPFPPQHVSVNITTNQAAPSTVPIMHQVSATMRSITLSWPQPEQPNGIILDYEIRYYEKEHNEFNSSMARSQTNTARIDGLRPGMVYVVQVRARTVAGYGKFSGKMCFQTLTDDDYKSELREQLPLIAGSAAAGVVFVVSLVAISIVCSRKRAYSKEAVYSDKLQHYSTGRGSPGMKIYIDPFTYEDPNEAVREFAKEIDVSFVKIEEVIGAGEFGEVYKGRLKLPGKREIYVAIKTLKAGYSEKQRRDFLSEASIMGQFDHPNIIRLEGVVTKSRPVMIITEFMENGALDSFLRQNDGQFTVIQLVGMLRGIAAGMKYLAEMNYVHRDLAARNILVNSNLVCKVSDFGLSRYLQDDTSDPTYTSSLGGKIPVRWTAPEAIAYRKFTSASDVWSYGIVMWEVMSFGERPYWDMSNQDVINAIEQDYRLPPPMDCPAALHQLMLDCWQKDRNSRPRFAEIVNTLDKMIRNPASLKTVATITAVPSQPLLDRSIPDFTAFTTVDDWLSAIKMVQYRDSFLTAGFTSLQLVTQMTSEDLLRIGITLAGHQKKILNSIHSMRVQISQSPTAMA

[13] = tested on: Fer (mouse); assay: as above
[14] = target: SHP2-C SH2; assay: SH2 binding enrichment of the phosphorylated peptide, bacterial display (enrichment ratio); higher = better substrate or ligand; peptides without Tyr show the background
[15] = target: c-Src SH2; assay: as above
[16] = target: Grb2 SH2 (UniProt P62993); assay: as above
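Throughout, for SH2 binding enrichment of the phosphorylated peptide, bacterial display: peptide library displayed on the E. coli surface as eCPX fusions, selected cells deep-sequenced, score is each peptide's frequency after selection divided by its frequency in the input.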
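Throughout, for phosphorylation enrichment, bacterial display: 11-residue human phosphosite peptides and single-mutation variants displayed on the E. coli surface, counted by deep sequencing, each peptide's frequency after selection divided by its frequency in the unselected input library; frequency after pTyr selection over input frequency; kinase dosed for 20-30% of maximal phosphorylation in three min.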

Sequence of Hck (P08631 whole entry, looked up): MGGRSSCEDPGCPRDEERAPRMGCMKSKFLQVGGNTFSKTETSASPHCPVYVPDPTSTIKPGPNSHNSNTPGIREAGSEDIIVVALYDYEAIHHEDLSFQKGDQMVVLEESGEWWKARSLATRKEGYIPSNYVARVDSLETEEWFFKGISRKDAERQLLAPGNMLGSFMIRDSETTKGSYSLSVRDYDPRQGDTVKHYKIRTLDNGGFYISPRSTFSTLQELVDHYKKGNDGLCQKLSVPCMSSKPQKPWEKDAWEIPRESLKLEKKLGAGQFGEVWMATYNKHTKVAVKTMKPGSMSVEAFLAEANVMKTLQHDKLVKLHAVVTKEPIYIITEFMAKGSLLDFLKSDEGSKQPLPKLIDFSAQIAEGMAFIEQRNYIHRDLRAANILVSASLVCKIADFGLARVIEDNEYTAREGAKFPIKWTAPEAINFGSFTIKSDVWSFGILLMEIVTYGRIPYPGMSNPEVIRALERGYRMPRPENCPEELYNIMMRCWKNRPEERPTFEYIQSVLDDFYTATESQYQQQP

Row | SH2 binding enrichment [14] | SH2 binding enrichment [15] | SH2 binding enrichment [16] | Sequence | phosphorylation enrichment [1] | phosphorylation enrichment [2] | phosphorylation enrichment [3] | phosphorylation enrichment [4] | phosphorylation enrichment [5] | phosphorylation enrichment [6] | phosphorylation enrichment [7] | phosphorylation enrichment [8] | phosphorylation enrichment [9] | phosphorylation enrichment [10] | phosphorylation enrichment [11] | phosphorylation enrichment [12] | phosphorylation enrichment [13]
1 | 0.547 | 0.576 | 0.936 | AKIDGYIISFR | 0.315 | 0.559 | 0.365 | 0.37 | 1.1 | 0.412 | 0.412 | 1.13 | 1.06 | 0.472 | 0.654 | 0.575 | 0.386
2 | 1.59 | 1.2 | 1.44 | AKKKMYSCKTK [AGXT_Y231_R233C] | 0.474 | 1.95 | 0.537 | 0.529 | 1.01 | 0.578 | 0.417 | 1.19 | 2.73 | 0.588 | 1.64 | 0.62 | 0.613
3 | 0.591 | 0.457 | 0.872 | ALEKTYNTFRS [B4GALNT2_Y538_YF] | 1.78 | 0.503 | 0.704 | 0.382 | 0.573 | 0.406 | 0.777 | 0.509 | 0.73 | 0.433 | 0.456 | 0.351 | 0.422
4 | 0.612 | 0.448 | 0.819 | ALEKTYNTYRS [B4GALNT2_Y538] | 0.925 | 0.433 | 0.438 | 0.312 | 0.568 | 0.349 | 0.517 | 0.658 | 0.497 | 0.391 | 0.439 | 0.336 | 0.35
5 | 2.38 | 1.38 | 1.54 | ALKKPYGVLYK [RPF2_Y59] | 0.707 | 0.675 | 0.675 | 0.397 | 0.643 | 0.4 | 0.503 | 0.775 | 0.72 | 0.455 | 0.516 | 0.544 | 0.5
6 | 1.42 | 1.35 | 1.54 | ALRHYYKLNII [ETV6_Y402] | 0.427 | 0.839 | 0.527 | 0.522 | 0.968 | 0.533 | 0.506 | 1.28 | 1.3 | 1.3 | 1.36 | 0.579 | 0.693
7 | 1.74 | 1.66 | 1.8 | ALVLQYLRVPL [F9_Y371] | 0.39 | 0.62 | 0.536 | 0.378 | 1.03 | 0.5 | 0.455 | 1.02 | 1.6 | 0.582 | 0.662 | 0.61 | 0.55
8 | 0.595 | 0.523 | 0.806 | ANFTEYVATRW [CDKL5_Y171_YF] | 0.466 | 0.682 | 0.523 | 0.49 | 0.977 | 0.922 | 0.57 | 0.947 | 0.781 | 0.707 | 0.814 | 0.834 | 0.515
9 | 2.02 | 1.75 | 2.2 | LSCVIYVILRK [PMP22_Y153_G150C] | 1.06 | 1.39 | – | – | – | – | – | – | 1.83 | – | – | – | –
